{
  "source": "paper PMC7790415",
  "about": "“Loss of endocytosis-associated RabGEF1 causes aberrant morphogenesis and altered autophagy in photoreceptors leading to retinal degeneration” (PLoS Genetics, 2020)",
  "binders": {"B1": {"name": "Rabaptin-5 (natural protein, mouse (endogenous in retina), UniProt O35551 1-862, looked up)", "chain": "MAQPGPAPQPDVSLQQRVAELEKINAEFLRAQQQLEQEFNQKRAKFKELYLAKEEDLKRQNAVLQAAQDDLGHLRTQLWEAQAEMENIKAIATVSENTKQEAIDEVKRQWREEVASLQAIMKETVRDYEHQFHLRLEQERAQWAQYRESAEREIADLRRRLSEGQEEENLENEMKKAQEDAEKLRSVVMPMEKEIAALKDKLTEAEDKIKELEASKVKELNHYLEAEKSCRTDLEMYVAVLNTQKSVLQEDAEKLRKELHEVCHLLEQERQQHNQLKHTWQKANDQFLESQRLLMRDMQRMEIVLTSEQLRQVEELKKKDQEEDEQQRVNKRKDNKKTDTEEEVKIPVVCALTQEESSTPLSNEEEHLDSTHGSVHSLDADLMLPSGDPFSKSDNDMFKDGLRRAQSTDSLGTSSSLQSKALGYNYKAKSAGNLDESDFGPLVGADSVSENFDTVSLGSLQMPSGFMLTKDQERAIKAMTPEQEETASLLSSVTQGMESAYVSPSGYRLVSETEWNLLQKEVHNAGNKLGRRCDMCSNYEKQLQGIQIQEAETRDQVKKLQLMLRQANDQLEKTMKEKQELEDFLKQSAEDSSHQISALVLRAQASEVLLEELQQSFSQAKRDVQEQMAVLMQSREQVSEELVRLQKDNDSLQGKHSLHVSLQLAEDFILPDTVEVLRELVLKYRENIVHVRTAADHMEEKLKAEILFLKEQIQAEQCLKENLEETLQLEIENCKEEIASISSLKAELERIKVEKGQLESTLREKSQQLESLQEMKVNLEEQLKKETAAKATVEQLMFEEKNKAQRLQTELDVSEQVQRDFVKLSQTLQVQLERIRQADSLERIRAILNDTKLTDINQLPET", "notes": "Rabaptin-5 (also known as Rabep1), mouse, endogenous protein of retinal extracts; Endogenous protein; also called Rabep1; source: endogenous, mouse retina extract (control retina)"}},
  "target": "T1, RabGEF1 (mouse (endogenous in retina), UniProt Q9JM13 1-491)",
  "T1 construct": "RabGEF1 (Rabex-5), mouse, endogenous protein of retinal extracts, immunoprecipitated with anti-RabGEF1 antibody; Endogenous protein; also called Rabex-5; Rabex5; source: endogenous, mouse retina extract (control retina)",
  "T1 sequence (Q9JM13 whole entry)": "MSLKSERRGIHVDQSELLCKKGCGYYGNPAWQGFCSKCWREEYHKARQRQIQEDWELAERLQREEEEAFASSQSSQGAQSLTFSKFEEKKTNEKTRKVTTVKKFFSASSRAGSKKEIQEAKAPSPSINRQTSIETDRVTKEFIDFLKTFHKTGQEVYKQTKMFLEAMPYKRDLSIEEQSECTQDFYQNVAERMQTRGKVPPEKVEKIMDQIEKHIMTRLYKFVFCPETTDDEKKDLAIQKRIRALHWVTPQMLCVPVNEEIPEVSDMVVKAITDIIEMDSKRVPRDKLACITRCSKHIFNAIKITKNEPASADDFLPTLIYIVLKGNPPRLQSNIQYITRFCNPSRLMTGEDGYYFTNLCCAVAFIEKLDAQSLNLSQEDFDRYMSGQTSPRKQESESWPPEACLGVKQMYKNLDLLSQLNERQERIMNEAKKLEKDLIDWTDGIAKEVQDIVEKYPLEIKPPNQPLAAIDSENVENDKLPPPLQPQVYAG",
  "experiment": "affinity purification with mass spectrometry; anti-RabGEF1 and IgG immunoprecipitates from control and Rabgef1-/- mouse retinal lysates; trypsin digest, LC-MS on Orbitrap Lumos (n = 2)",
  "conditions": "partners not purified",
  "note": "Values joined by “and” are separate entries in the source; they are usually repeats but may differ in a detail not shown here. Equal values may be shown once.",
  "data": [
    {"binder": "B1", "values": [
      {"measurement": "stoichiometry N", "value": "0.5 Rabaptin-5 per RabGEF1 (printed as RabGEF1:Rabaptin-5 2:1) and 2 Rabaptin-5 per RabGEF1 (printed as RabGEF1:Rabaptin-5 1:2)"}
    ]}
  ]
}
